In the DeepSol protein solubility set:

Experiment: soluble on expression in E. coli; label from the status in PepcDB or PDB records

| Sequence | soluble on expression in E. coli |
| --- | --- |
| MSDNDTIVAQATPPGRGGVGILRISGFKAREVAETVLGKLPKPRYADYLPFKDADGSVLDQGIALWFPGPNSFTGEDVLELQGHGGPVILDLLLKRILTIPGLRIARPGEFSERAFLNDKLDLAQAEAIADLIDASSEQAARSALNSLQGAFSARVNHLVEALTHLRIYVEAAIDFPDEEIDFLSDGKIEAQLNDVIADLDAVRAEARQGSLLREGMKVVIAGRPNAGKSSLLNALAGREAAIVTDIAGTTRDVLREHIHIDGMPLHIIDTAGLREASDEVERIGIERAWQEIEQADRVLFMVDGTTTDAVDPAEIWPEFIARLPAKLPITVVRNKADITGETLGMSEVNGHALIRLSARTGEGVDVLRNHLKQSMGFDTNMEGGFLARRRHLQALEQAAEHLQQGKAQLLGAWAGELLAEELRLAQQNLSEITGEFTSDDLLGRIFSSFCIGK | soluble |
| MSDPDLELASRREIYQRIADTPGVHFRALLDELKYAQGTLQYQLRWLADKGLIDVSDDGKYTRYYPAAEFDEADRTVMNALRREYSRRILAHLLTDSPLSTTELSERLDKAQSTVSWHLSKLAEADLVTKERDGRSVVYEVSDPDRVKYLYTVHRRSFTDKVVDRILGLWDSY | not soluble |
| MSDPRYQIDVSVVTRYLKEQSDPENSRFAFAYTITVQNNGSLSAKLLSRHWLITNGDGEVEEVRGAGVVGQQPNIDPGQSHTYSSGAVISTRVGTMQGSYQMFAEDGKRFDAEIAPFRLAVPGALHLEHHHHHH | soluble |
| MSDQPRPTVIITGASSGVGLYATKALANRGWHVIMACRNLEKAEQAAKNLQIPPEAYTILHLDLSSLASVRGFVESFRALNRPLRALVCNAAVYYPLLKEPIYSVDGYEITVATNHLGHFLLINLLLEDLKNSPESDKRLVILGTVTANRKELGGKIPIPAPPDLGNLEGFEKGFKKPIAMINGKPFKSGKAYKDSKLCNMLTARELHRRFHESTGIVFNSLYPGCVADTPLFRHHFPLFQKLFPLFQKKITGGYVSQELAGERVAMVVADPEFRQSGVHWSWGLEHHHHHH | soluble |
| MSDSCDGVECGPGKACRMLGGRPRCECAPDCSGLPARLQVCGSDGATYRDECELRAARCRGHPDLSVMYRGRCRK | soluble |
| MSDSRYKVDVSVVTRFLAEQSQPEQNRFAFAYTITVHNNGELPAKLLSRHWIITDGDGHVEEVRGEGVVGQQPLIKVGQSHTYSSGTVMTTQVGNMQGSYQMLAEDGKRFDAVIEPFRLAVPGSLHLEHHHHHH | soluble |
| MSDSTPKTPRGFVVHTAPVGLADDGRDDFTVLASTAPATVSAVFTRSRFAGPSVVLCREAVADGQARGVVVLARNANVATGLEGEENAREVREAVARALGLPEGEMLIASTGVIGRQYPMESIREHLKTLEWPAGEGGFDRAARAIMTTDTRPKEVRVSVGGATLVGIAKGVGMLEPDMATLLTFFATDARLDPAEQDRLFRRVMDRTFNAVSIDTDTSTSDTAVLFANGLAGEVDAGEFEEALHTAALALVKDIASDGEGAAKLIEVQVTGARDDAQAKRVGKTVVNSPLVKTAVHGCDPNWGRVAMAIGKCSDDTDIDQERVTIRFGEVEVYPPKARGDQADDALRAAVAEHLRGDEVVIGIDLAIADGAFTVYGCDLTEGYVRLNSEYTT | soluble |
| MSDTNYAVIYDLHSHTTASDGCLTPEALVHRAVEMRVGTLAITDHDTTAAIAPAREEISRSGLALNLIPGVEISTVWENHEIHIVGLNIDITHPLMCEFLAQQTERRNQRAQLIAERLEKAQIPGALEGAQRLAQGGAVTRGHFARFLVECGKASSMADVFKKYLARGKTGYVPPQWCTIEQAIDVIHHSGGKAVLAHPGRYNLSAKWLKRLVAHFAEHHGDAMEVAQCQQSPNERTQLAALARQHHLWASQGSDFHQPCPWIELGRKLWLPAGVEGVWQLWEQPQNTTERELLEHHHHHH | not soluble |
| MSDTTELVDLAVIFPDLEIELKYACADNITGKAIYQQARCLLHKDAITALAKSISIAQLSGLQLVIYDAYRPQQAQAMLWQACPDPQYVVDVTVGSNHSRGTAIDLTLRDEHGNILDMGAGFDEMHERSHAYHPSVPPAAQRNRLLLNAIMTGGGFVGISSEWWHFELPQAASYPLLADQFSCFISPGTQHVS | not soluble |
| MSEADQALVGPKADEPSPPAEEKDEGGGKEAAADAAPGPSASFRLMVTRREPAVKLQYAVSGLEPLSWSEDHRVSVSTARSVAVLELICDVHNPGQDLVIHRTSVPAPLNSCLLKVGSKTEVAECKEKFASSKDPTISQTFMLDRMFNPEGKALPPMRGFKYTSWSPMGCDANGRCLLAALTMDNRLTVQVNLNRLQWVQLVDLTEIYGDRLYETSYRLSKNEAPEGNLGDFAEFQRRHSMQTPVRMEWSSICTTQQVKHNNECRDVSS | not soluble |
| MSEAESVVIKGGNKDKILPLEAEEKKPIKEEKNKAVILSNWIIKYAPIVYFHPDEKCFPITVEEFLECTDVMNEKNEKFCDGKEILSGSFKDALGNQKFYLKITDTSVREGNLNSAKCYVYVRKRNKGRYLDLQYFFFYGYNGPTINIHLNKNKKNYSTSNIGENYGNWEHVTVVIDSTDGSILGAIFDQHGKSCFYDIDQLEYEKGHIVVYSALSSHASYPSAGKSVTEYDSQELGVPPVSVGIVKFELHDATDKGRRWDTSLVCQLVSYNITGTEVEEPKWMAFNGRWGKPYDLTDKDISILYQISRLPAGGKVVDSLLWRFIPYSKKNINQANGIKSKDDFNIIILEHHHHHH | not soluble |
| MSEAKDNGSRDEVLVPHKNCRKNTTVPGKKGEEKSLAPVFAEKLISPSRRGAKLKDRESHQENEDRNSELDQDEEDKESFCRGFPMSGCELETSCCVCHSTALGERFC | soluble |
| MSEDRSSNGHKSWLDKITQAFAHEPRNRQELLELLRDAHDNKLLDSEALSIVEGAIQVADLQVRDIMVPRSQMMSIRSTQTPKEFLPAIIEAAHSRYPVVGESLDDVMGVLLAKDLLPLILHNDERPFDIKELLRPATFVPESKRLNVLLREFRANRNHMAIVIDEYGGVAGLVTIEDVLEQIVGDIEDEHDVEEDSYIKPLPSGDFIVKALTPVDAFNDFFGSEFSDEEFDTVGGLVMSAFGHLPKRNEVVELGEFRFRVLNADSRRVHLLRLSPLQN | soluble |
| MSEGWNIAILGATGAVGEALLETLAERQFPVGEIYALARHESAGEHLRFGGKSVIVQDAADFDWTQAQLAFFVAGAEASAAWIDDATNAGCLVIDSSGLFALEPDVPLVVPEVNPYVLADYRNRNVIAVADSLTSQLLAALKPLIDQGGLSRIAVTSMLSASAQGKKAVDALAGQSAKLLNGIPIDEDDFFGRQLAFNMLPLLPDREGSVRQERRIVDEVRKILQDDGVMISASVVQSPVFYGHAQMVSFEALRPLAAEEAREAFSRGEDIVLSEETDYPTQVGDASGNPQLSIGCVHNDYGMPEQIQFWSVADNVRFGGALMAVKIAEKLVQEYLY | not soluble |
| MSEIGTGFPFDPHYVEVLGERMHYVDVGPRDGTPVLFLHGNPTSSYLWRNIIPHVAPSHRCIAPDLIGMGKSDKPDLDYFFDDHVRYLDAFIEALGLEEVVLVIHDWGSALGFHWAKRNPERVKGIACMEFIRPIPTWDEFHHTEVAEEQDHAEAARETFQAFRTADVGRELIIDQNAFIERVLPGGVVRPLTEVEMDHYREPFLKPVDREPLWRFPNELPIAGEPANIVALVEAYMNWLHQSPVPKLLFWGTPGALIPPAEAARLAESLPNCKTVDIGPGLHYLQEDNPDLIGSEIARWLPAL | soluble |
| MSENSIRLTQYSHGAGCGCKISPKVLETILHSEQAKFVDPNLLVGNETRDDAAVYDLGNGTSVISTTDFFMPIVDNPFDFGRIAATNAISDIFAMGGKPIMAIAILGWPINKLSPEIAREVTEGGRYACRQAGIALAGGHSIDAPEPIFGLAVTGIVPTERVKKNSTAQAGCKLFLTKPLGIGVLTTAEKKSLLKPEHQGLATEVMCRMNIAGASFANIEGVKAMTDVTGFGLLGHLSEMCQGAGVQARVDYEAIPKLPGVEEYIKLGAVPGGTERNFASYGHLMGEMPREVRDLLCDPQTSGGLLLAVMPEAENEVKATAAEFGIELTAIGELVPARGGRAMVEIR | soluble |
